Test results reported in patent US20100144029.

Target: ClpP proteasome (UniProt P0A6G7)

In the case of “processed E. coli ClpX protein (after proteolytic removal of the T7B carboxyl-terminal extension)”, the “ATPase activity and ability to cooperate with the ClpP proteasome in degrading model protein substrates” value is reported as “full biological activity”.
